The results in this text go back to US20250295801A1, “CD25 ANTIBODIES, ANTIBODY DRUG CONJUGATES, AND USES THEREOF” (Seagen Inc., priority 2024, published 2025).

Where two headings read alike, the source gives them in different places.

Assay [1] deals with T1, recombinant human CD25 (human, UniProt P01589 22-213, limits assumed, biotinylated in the Octet kinetic assay (site not stated)).
T1 construct: Soluble recombinant antigen; It was coated on plates for ELISA and used as bought biotinylated protein for BLI; The ELISA and BLI reagents may be different constructs; also called hCD25; CD25/IL2RA
T1 sequence: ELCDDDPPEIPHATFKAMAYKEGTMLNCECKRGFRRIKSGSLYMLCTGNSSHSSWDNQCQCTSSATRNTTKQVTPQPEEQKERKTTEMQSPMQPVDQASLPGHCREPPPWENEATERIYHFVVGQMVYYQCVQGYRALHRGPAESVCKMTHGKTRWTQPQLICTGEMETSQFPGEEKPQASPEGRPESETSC
Put plainly: BLI kinetics (Octet RED384), biotinylated hCD25 on SAX tips, 1:1 global fit.

The target in assay [2] is T2, human CD25 on CD25 expressing cells (human, UniProt P01589 22-272).
T2 construct: Endogenous CD25 on human lymphoma lines (L540cy, Karpas-299) and on human Treg cells; also called CD25 on L540cy cells; CD25 on Karpas-299 cells
T2 sequence: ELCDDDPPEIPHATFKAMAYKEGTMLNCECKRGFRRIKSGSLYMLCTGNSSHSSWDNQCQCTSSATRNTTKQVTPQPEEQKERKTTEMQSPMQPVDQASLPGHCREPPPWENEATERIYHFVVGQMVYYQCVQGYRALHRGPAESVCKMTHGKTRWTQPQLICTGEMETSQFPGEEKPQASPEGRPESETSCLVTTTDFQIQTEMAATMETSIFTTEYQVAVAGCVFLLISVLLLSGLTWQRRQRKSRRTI
Put plainly: saturation binding by flow cytometry on L540cy cells (CD25: 55,000 per cell), MFI (Gmean).
Procedure: (§1) For cellular binding analysis by FACS, cells expressing the target protein of interest (2×10⁵) were treated with a serial dilution of indicated antibody in staining buffer (PBS, 5% FBS, 0.2% NaN₃). Samples were incubated for 1 hour on ice and washed twice with ice-cold staining buffer. Cells were resuspended with anti-human IgG-AF488 or IgG-AF647 (JacksonImmunoResearch), 1:200 dilution in staining buffer) for 1 hour on ice. Cells were washed twice with ice cold staining buffer and resuspended in staining buffer. Labeled cells were examined by flow cytometry on an Invitrogen Attune NxT flow cytometer gated to exclude nonviable cells, and the data analyzed using FlowJo10 software. When determined, the KD was calculated using GraphPad Prism 6 using non-linear regression.
(§2) Saturation binding analysis was also performed using high CD25 expressing L540cy cells.

In assay [3] the target is T1, recombinant human CD25. Description: saturation binding ELISA on recombinant human CD25.
Procedure: (§3) Saturation binding ELISA experiments were performed using soluble recombinant antigens, which were diluted to an appropriate concentration in 50 mM carbonate buffer, pH 9.6. To each well of a 96- or 384-well Maxisorb ELISA plate was added 100 μL of soluble antigen. The plate was sealed and stored at 4° C. overnight. The plate was then washed 3-5 times with PBS-T was buffer (PBS, pH 7.4+0.05% Tween-20). The wells were blocked using 300 μL/well of PBS-T buffer containing BSA for 1 hour at room temperature, then washed 3-5 times with PBS-T. Dilutions of antibodies were prepared in blocking buffer and added to each well in a volume of 100 μL. The antibodies were incubated for 1 hour at room temperature, and then washed 3-5 times with PBS-T. HRP-conjugated secondary antibodies (anti-human Fc) were then added and incubated for 1 hour at room temperature. The plate was washed 3-5 times with PBS-T. The ELISA was developed by adding 100 μL of TMB solution and incubating for 3-15 min at room temperature. To stop the reaction, 100 μL of 1 N sulfuric acid was added to each well. The absorbance at 450 nm was determined using a Spectramax 190 plate reader (Molecular Biosciences) and the data plotted using GraphPad Prism 6.
For assay [4], the target named is T2, human CD25 on CD25 expressing cells. Put plainly: saturation binding by flow cytometry on L540cy cells (CD25: 55,000 per cell), MFI (Gmean). The source holds these as a separate data set.
Procedure: as §1, §2
The target of assay [5] is T1, recombinant human CD25. Put plainly: saturation binding ELISA on recombinant human CD25. This is another data set of the same source.
Procedure: as §3

B1: SG25Ab-9 variant YH99A (antibody, V domains shown)
VH: QVQLVQSGAEVKKPGESLKISCKGSGYSSTSYWIGWVRQMPGKGLEWMGIIYPGDSDTRYSPSFQGQVTISADKSISTAYLQWSSLKASDTAMYYCARLGSYAAFDIWGRGTMVTVSS
VL: QSALTQPASVSASPGQSITISCTGTSSDVGAYIYVSWYQQLSGKPPKLILYDVSKRPSGISDRFSGSKSGNTASLTISGLQADDEADYYCSSYTRSSTWVFGGGTQLTVLG
notes: Kabat-type numbering, not linear
Take B1: in the assay with recombinant human CD25 [1], the Kd came to 21.5 nM, the koff was found to be 0.0085 s⁻¹ and the kon was 390000 M⁻¹ s⁻¹.

B2: SG25Ab-9 variant DH54K (antibody, V domains shown)
VH: QVQLVQSGAEVKKPGESLKISCKGSGYSSTSYWIGWVRQMPGKGLEWMGIIYPGKSDTRYSPSFQGQVTISADKSISTAYLQWSSLKASDTAMYYCARLGSYYAFDIWGRGTMVTVSS
VL: QSALTQPASVSASPGQSITISCTGTSSDVGAYIYVSWYQQLSGKPPKLILYDVSKRPSGISDRFSGSKSGNTASLTISGLQADDEADYYCSSYTRSSTWVFGGGTQLTVLG
In the case of B2, in the assay with recombinant human CD25 [1], the Kd worked out at 24.2 nM, the koff came out at 0.0079 s⁻¹ and the kon was found to be 330000 M⁻¹ s⁻¹.

B3: SG25Ab-9 variant YH52A (antibody, V domains shown)
VH: QVQLVQSGAEVKKPGESLKISCKGSGYSSTSYWIGWVRQMPGKGLEWMGIIAPGDSDTRYSPSFQGQVTISADKSISTAYLQWSSLKASDTAMYYCARLGSYYAFDIWGRGTMVTVSS
VL: QSALTQPASVSASPGQSITISCTGTSSDVGAYIYVSWYQQLSGKPPKLILYDVSKRPSGISDRFSGSKSGNTASLTISGLQADDEADYYCSSYTRSSTWVFGGGTQLTVLG
For B3, in the assay with recombinant human CD25 [1], the Kd came out at 1.3 nM, the dissociation rate constant (koff) is 0.001 s⁻¹ and the kon came out at 780000 M⁻¹ s⁻¹. Also, the “EC50 (read off the curve)” value in assay [2] is approximately 4 nM.

B4: SG25Ab-9 variant AH100F (antibody, V domains shown)
VH: QVQLVQSGAEVKKPGESLKISCKGSGYSSTSYWIGWVRQMPGKGLEWMGIIYPGDSDTRYSPSFQGQVTISADKSISTAYLQWSSLKASDTAMYYCARLGSYYFFDIWGRGTMVTVSS
VL: QSALTQPASVSASPGQSITISCTGTSSDVGAYIYVSWYQQLSGKPPKLILYDVSKRPSGISDRFSGSKSGNTASLTISGLQADDEADYYCSSYTRSSTWVFGGGTQLTVLG
With B4, in the assay with recombinant human CD25 [1], the Kd came to 3.9 nM, the koff was found to be 0.0012 s⁻¹ and the kon is 310000 M⁻¹ s⁻¹.

B5: SG25Ab-9 variant FH100AN (antibody, V domains shown)
VH: QVQLVQSGAEVKKPGESLKISCKGSGYSSTSYWIGWVRQMPGKGLEWMGIIYPGDSDTRYSPSFQGQVTISADKSISTAYLQWSSLKASDTAMYYCARLGSYYANDIWGRGTMVTVSS
VL: QSALTQPASVSASPGQSITISCTGTSSDVGAYIYVSWYQQLSGKPPKLILYDVSKRPSGISDRFSGSKSGNTASLTISGLQADDEADYYCSSYTRSSTWVFGGGTQLTVLG
In the case of B5, in the assay with recombinant human CD25 [1], the Kd worked out at 0.3 nM, the koff was 5.7e-05 s⁻¹ and the kon amounted to 200000 M⁻¹ s⁻¹. Also, the “EC50 (read off the curve)” value with recombinant human CD25 [3] was approximately 0.3 nM. For the same molecule, the “EC50 (read off the curve)” value in assay [4] was in the range of 1 to 2 nM.

B6: SG25Ab-9 variant YH27A (antibody, V domains shown)
VH: QVQLVQSGAEVKKPGESLKISCKGSGASSTSYWIGWVRQMPGKGLEWMGIIYPGDSDTRYSPSFQGQVTISADKSISTAYLQWSSLKASDTAMYYCARLGSYYAFDIWGRGTMVTVSS
VL: QSALTQPASVSASPGQSITISCTGTSSDVGAYIYVSWYQQLSGKPPKLILYDVSKRPSGISDRFSGSKSGNTASLTISGLQADDEADYYCSSYTRSSTWVFGGGTQLTVLG
Turning to B6, in the assay with recombinant human CD25 [1], the Kd stood at 0.1 nM, the koff worked out at 2.6e-05 s⁻¹ and the kon is 240000 M⁻¹ s⁻¹. Further, in the assay with recombinant human CD25 [5], the concentration for a half-maximal effect (EC50 (read off the curve)) was approximately 0.2 nM. Moreover, the “EC50 (read off the curve)” value in assay [2] was approximately 0.9 nM.

B7: SG25Ab-9 variant DH101K (antibody, V domains shown)
VH: QVQLVQSGAEVKKPGESLKISCKGSGYSSTSYWIGWVRQMPGKGLEWMGIIYPGDSDTRYSPSFQGQVTISADKSISTAYLQWSSLKASDTAMYYCARLGSYYAFKIWGRGTMVTVSS
VL: QSALTQPASVSASPGQSITISCTGTSSDVGAYIYVSWYQQLSGKPPKLILYDVSKRPSGISDRFSGSKSGNTASLTISGLQADDEADYYCSSYTRSSTWVFGGGTQLTVLG
With B7, in the assay with recombinant human CD25 [1], the Kd turned out to be 0.2 nM, the koff stood at 0.0001 s⁻¹ and the kon stood at 420000 M⁻¹ s⁻¹. The “EC50 (read off the curve)” value in the assay with recombinant human CD25 [3] was approximately 0.2 nM. For the same molecule, the “EC50 (read off the curve)” value in assay [4] is approximately 1 nM.

B8: SG25Ab-9 variant FH100AA (antibody, V domains shown)
VH: QVQLVQSGAEVKKPGESLKISCKGSGYSSTSYWIGWVRQMPGKGLEWMGIIYPGDSDTRYSPSFQGQVTISADKSISTAYLQWSSLKASDTAMYYCARLGSYYAADIWGRGTMVTVSS
VL: QSALTQPASVSASPGQSITISCTGTSSDVGAYIYVSWYQQLSGKPPKLILYDVSKRPSGISDRFSGSKSGNTASLTISGLQADDEADYYCSSYTRSSTWVFGGGTQLTVLG
As for B8, in the assay with recombinant human CD25 [1], the Kd is 0.6 nM, the koff was 0.00017 s⁻¹ and the kon turned out to be 290000 M⁻¹ s⁻¹. The half-maximal effective concentration (EC50 (read off the curve)) with recombinant human CD25 [3] is approximately 0.8 nM. Further, the “EC50 (read off the curve)” value in assay [4] is 1 to 2 nM.

B9: SG25Ab-9 variant YH32A (antibody, V domains shown)
VH: QVQLVQSGAEVKKPGESLKISCKGSGYSSTSAWIGWVRQMPGKGLEWMGIIYPGDSDTRYSPSFQGQVTISADKSISTAYLQWSSLKASDTAMYYCARLGSYYAFDIWGRGTMVTVSS
VL: QSALTQPASVSASPGQSITISCTGTSSDVGAYIYVSWYQQLSGKPPKLILYDVSKRPSGISDRFSGSKSGNTASLTISGLQADDEADYYCSSYTRSSTWVFGGGTQLTVLG
For the molecule B9, in the assay with recombinant human CD25 [1], the Kd amounted to 0.8 nM, the koff is 0.00023 s⁻¹ and the kon worked out at 300000 M⁻¹ s⁻¹. The “EC50 (read off the curve)” value in assay [2] is approximately 5 nM.

B10: SG25Ab-9 variant SH28W (antibody, V domains shown)
VH: QVQLVQSGAEVKKPGESLKISCKGSGYWSTSYWIGWVRQMPGKGLEWMGIIYPGDSDTRYSPSFQGQVTISADKSISTAYLQWSSLKASDTAMYYCARLGSYYAFDIWGRGTMVTVSS
VL: QSALTQPASVSASPGQSITISCTGTSSDVGAYIYVSWYQQLSGKPPKLILYDVSKRPSGISDRFSGSKSGNTASLTISGLQADDEADYYCSSYTRSSTWVFGGGTQLTVLG
In the case of B10, in the assay with recombinant human CD25 [1], the Kd was determined as 0.1 nM, the koff turned out to be 3.8e-05 s⁻¹ and the kon is 300000 M⁻¹ s⁻¹. Further, in the assay with recombinant human CD25 [5], the “EC50 (read off the curve)” value is approximately 0.2 nM. Further, the “EC50 (read off the curve)” value in assay [2] is approximately 0.9 nM.

B11: SG25Ab-9 variant SH55N (antibody, V domains shown)
VH: QVQLVQSGAEVKKPGESLKISCKGSGYSSTSYWIGWVRQMPGKGLEWMGIIYPGDNDTRYSPSFQGQVTISADKSISTAYLQWSSLKASDTAMYYCARLGSYYAFDIWGRGTMVTVSS
VL: QSALTQPASVSASPGQSITISCTGTSSDVGAYIYVSWYQQLSGKPPKLILYDVSKRPSGISDRFSGSKSGNTASLTISGLQADDEADYYCSSYTRSSTWVFGGGTQLTVLG
Regarding B11, in the assay with recombinant human CD25 [1], the Kd was determined as 0.1 nM, the koff is 2.8e-05 s⁻¹ and the kon was 220000 M⁻¹ s⁻¹. In addition, the “EC50 (read off the curve)” value with recombinant human CD25 [5] is approximately 0.2 nM. In addition, the “EC50 (read off the curve)” value in assay [2] is approximately 0.9 nM.

B12: SG25Ab-9 variant GH96W (antibody, V domains shown)
VH: QVQLVQSGAEVKKPGESLKISCKGSGYSSTSYWIGWVRQMPGKGLEWMGIIYPGDSDTRYSPSFQGQVTISADKSISTAYLQWSSLKASDTAMYYCARLWSYYAFDIWGRGTMVTVSS
VL: QSALTQPASVSASPGQSITISCTGTSSDVGAYIYVSWYQQLSGKPPKLILYDVSKRPSGISDRFSGSKSGNTASLTISGLQADDEADYYCSSYTRSSTWVFGGGTQLTVLG
Consider B12, for which, in the assay with recombinant human CD25 [1], the Kd came to 0.5 nM, the koff stood at 0.001 s⁻¹ and the kon was found to be 1.9e+06 M⁻¹ s⁻¹.

B13: SG25Ab-9 variant DH56K (antibody, V domains shown)
VH: QVQLVQSGAEVKKPGESLKISCKGSGYSSTSYWIGWVRQMPGKGLEWMGIIYPGDSKTRYSPSFQGQVTISADKSISTAYLQWSSLKASDTAMYYCARLGSYYAFDIWGRGTMVTVSS
VL: QSALTQPASVSASPGQSITISCTGTSSDVGAYIYVSWYQQLSGKPPKLILYDVSKRPSGISDRFSGSKSGNTASLTISGLQADDEADYYCSSYTRSSTWVFGGGTQLTVLG
Take B13: in the assay with recombinant human CD25 [1], the Kd came to 151 nM, the koff is 0.004 s⁻¹ and the kon was determined as 26000 M⁻¹ s⁻¹.

B14: SG25Ab-9 variant GH53Y (antibody, V domains shown)
VH: QVQLVQSGAEVKKPGESLKISCKGSGYSSTSYWIGWVRQMPGKGLEWMGIIYPYDSDTRYSPSFQGQVTISADKSISTAYLQWSSLKASDTAMYYCARLGSYYAFDIWGRGTMVTVSS
VL: QSALTQPASVSASPGQSITISCTGTSSDVGAYIYVSWYQQLSGKPPKLILYDVSKRPSGISDRFSGSKSGNTASLTISGLQADDEADYYCSSYTRSSTWVFGGGTQLTVLG
As for B14, in the assay with recombinant human CD25 [1], the Kd is 0.1 nM, the koff was 8.1e-05 s⁻¹ and the kon was determined as 1.6e+06 M⁻¹ s⁻¹. In the assay with recombinant human CD25 [5], the “EC50 (read off the curve)” value was approximately 0.2 nM. In assay [2], the “EC50 (read off the curve)” value is 1 to 2 nM.
